Test results reported in publication PMC11395016, “The Ubiquitination of Arrestin3 within the Nucleus Triggers the Nuclear Export of Mdm2, Which, in Turn, Mediates the Ubiquitination of GRK2 in the Cytosol” (International Journal of Molecular Sciences, 2024).

Molecular target: T1, FLAG-Mdm2 (UniProt Q00987 1-491)
T1 construct: Mdm2, E3 ubiquitin ligase; source: HEK-293, transfected, in nuclear and cytoplasmic fractions
Experiment: co-IP; HEK-293 cells transfected with D2R, GRK2 and FLAG-Mdm2; vehicle or 10 μM dopamine for 2 min; nuclear and cytoplasmic fractions each immunoprecipitated with FLAG beads; blot for GRK2
Conditions: partners not purified

T1 sequence (Q00987 whole entry): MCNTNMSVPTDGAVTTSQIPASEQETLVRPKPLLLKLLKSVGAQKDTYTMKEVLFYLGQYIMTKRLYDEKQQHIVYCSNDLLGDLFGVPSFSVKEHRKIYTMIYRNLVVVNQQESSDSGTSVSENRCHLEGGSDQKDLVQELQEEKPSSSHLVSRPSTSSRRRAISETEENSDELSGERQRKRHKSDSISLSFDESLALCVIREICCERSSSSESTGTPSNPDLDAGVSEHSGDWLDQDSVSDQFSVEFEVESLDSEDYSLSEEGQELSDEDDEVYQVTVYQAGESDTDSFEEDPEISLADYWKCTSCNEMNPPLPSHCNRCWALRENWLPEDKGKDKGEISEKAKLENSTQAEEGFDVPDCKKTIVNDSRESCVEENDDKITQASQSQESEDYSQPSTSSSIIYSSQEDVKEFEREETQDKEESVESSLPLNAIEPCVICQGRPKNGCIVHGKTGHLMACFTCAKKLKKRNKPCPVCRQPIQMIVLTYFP

ratio of band intensities in the blot, DA(+)/CF group against the DA(−)/CF group (1.0): 2.4
B1: GRK2 (enzyme, UniProt P25098 1-689, looked up)
chain: MADLEAVLADVSYLMAMEKSKATPAARASKKILLPEPSIRSVMQKYLEDRGEVTFEKIFSQKLGYLLFRDFCLNHLEEARPLVEFYEEIKKYEKLETEEERVARSREIFDSYIMKELLACSHPFSKSATEHVQGHLGKKQVPPDLFQPYIEEICQNLRGDVFQKFIESDKFTRFCQWKNVELNIHLTMNDFSVHRIIGRGGFGEVYGCRKADTGKMYAMKCLDKKRIKMKQGETLALNERIMLSLVSTGDCPFIVCMSYAFHTPDKLSFILDLMNGGDLHYHLSQHGVFSEADMRFYAAEIILGLEHMHNRFVVYRDLKPANILLDEHGHVRISDLGLACDFSKKKPHASVGTHGYMAPEVLQKGVAYDSSADWFSLGCMLFKLLRGHSPFRQHKTKDKHEIDRMTLTMAVELPDSFSPELRSLLEGLLQRDVNRRLGCLGRGAQEVKESPFFRSLDWQMVFLQKYPPPLIPPRGEVNAADAFDIGSFDEEDTKGIKLLDSDQELYRNFPLTISERWQQEVAETVFDTINAETDRLEARKKAKNKQLGHEEDYALGKDCIMHGYMSKMGNPFLTQWQRRYFYLFPNRLEWRGEGEAPQSLLTMEEIQSVEETQIKERKCLLLKIRGGKQFILQCDSDPELVQWKKELRDAYREAQQLVQRVPKMKNKPRSPVVELSKVPLVQRGSANGL
notes: GPCR kinase 2 (GRK2), plasmid without a named tag; detected with antibodies against GRK2; also called GPCR kinase 2; source: HEK-293, transfected, in nuclear and cytoplasmic fractions
